According to publication doi:10.1101/2023.05.12.540488 (bioRxiv, 2023):
Read-outs that look alike come from different tables or passages of the source.

What was measured:
Assay in all cases: crystal structure
[1] = target: the molecule itself
[2] = target: the molecule itself; remark: listed apart in the source
[3] = target: the molecule itself; remark: listed apart in the source
[4] = target: the molecule itself; remark: listed apart in the source

B1: S-adenosyl-L-homocysteine hydrolase from Sulfolobus acidocaldarius (enzyme)
chain: MDYRVKDLSLAEQGRKQIEWAELHMPALMEIRKRFNAEKPLDGIRIGAVLHVTKETAVLVETLKAGGAEIALAGSNPLSTQDDVAAGLAKNGIHVYAWRGETEKDYYDNIREILKYEPHVIMDDGGDLHAYVHENNLTSKIVGGTEETTTGVIRLKAMEEEKVLKYPVIAVNNAFTKYLFDNRIGTGQSTIDGILRATNILIAGKVAVVIGYGWVGRGIASRFKGMGARVIVVESSPFRALEALMDGFDVMTMNRASEIGDIFVTATGNLNVVSRDHILRMKDGAVLANSGHFNVEIDVKGLKEISVETREVRQNLEEYKLRNGKRIYLLADGRLVNLVAAEGHPSEVMDLSFCNQALSVEHLIKNKGKLENKVYNVPIEIDEQVARLKLKALGIEIEELTIEQKEYIKQWKYGT
[1]
  stoichiometry N: 4

B2: S-adenosyl-L-homocysteine hydrolase from Mus musculus (enzyme)
chain: MSDKLPYKVADIGLAAWGRKALDIAENEMPGLMRMREMYSASKPLKGARIAGCLHMTVETAVLIETLVALGAEVRWSSCNIFSTQDHAAAAIAKAGIPVFAWKGETDEEYLWCIEQTLHFKDGPLNMILDDGGDLTNLIHTKYPQLLSGIRGISEETTTGVHNLYKMMSNGILKVPAINVNDSVTKSKFDNLYGCRESLIDGIKRATDVMIAGKVAVVAGYGDVGKGCAQALRGFGARVIITEIDPINALQAAMEGYEVTTMDEACKEGNIFVTTTGCVDIILGRHFEQMKDDAIVCNIGHFDVEIDVKWLNENAVEKVNIKPQVDRYWLKNGRRIILLAEGRLVNLGCAMGHPSFVMSNSFTNQVMAQIELWTHPDKYPVGVHFLPKKLDEAVAEAHLGKLNVKLTKLTEKQAQYLGMPINGPFKPDHYRY
[2]
  binding result: binds

B3: S-adenosyl-L-homocysteine hydrolase from Methanococcus maripaludis (enzyme)
chain: MSNVKDMSLAPSGHLKMEWAKRHMPVLCRIAEEFKNDKPFEGLTIGMALHLEAKTAILAETLLEGGAKIVITGCNPLSTQDDVAAACVEKGMEVYAWRGETNEEYYENLNKVLDSNPDIIIDDGADLIFLIHTERTELIGKIMGGCEETTTGIIRLKSMAEEGALKFPVVNVNDAYTKHLFDNRYGTGQSAMDGIIRTTNLLIAGKNVVVGGYGWCGRGVASRAAGHGANVIITEVNPIRALEAKMDGFTVLKMEEAAKIGDIFVTTTGCKDILRMEHFLLMKDGAVLSNAGHFDNEINKNDLKELSKSVKEARFNIEEYDLGNKKIYLLGEGRLVNLACADGHPCEVMDMSFANQALSAKFIKENKGKLENEVYEIPYEQDFKIALLKLHSMGADIDELSPEQRKYLSDWKEGT
[3]
  stoichiometry N: 4

B4: S-adenosyl-L-homocysteine hydrolase from Pyrococcus furiosus (enzyme)
chain: MDCGKDYCVKDLSLAEEGWKKIDWVSRFMPVLQYIKREFEEKKPFKGVRIAATLHLEMKTAFLLLTLKAGGAEVSAAASNPLSTQDDVVAALAKAGVKVYAIRGESREQYYEFMHKALDIRPNIIIDDGADMISLVHKERQEMLDEIWGGSEETTTGVIRLRAMEKAGILKFPVIAVNDSYMKYLFDNRYGTGQSTWDGIMRATNLLIAGKNVVVVGYGWCGRGIAMRARGLGATVIVVEVDPIKALEARMDGFLVMDMKEAAKIGDIFVTATGNIKCIRREHFELMKDGAIMANAGHFDVEIWKPDLEKLAVEINNPRPNVTEYKLKDGRRLYLLADGRLVNLVAADGHPAEIMDMSFALQAKAAEYIKDNHERLEPKVYILPREIDEMVARIKLESMGIKIEELTEEQKKYLESWEHGT
[4]
  stoichiometry N: 4
